Data set [1] has as its target Aeropyrum pernix ThermoDBP-related protein 2 (apeThermoDBP-RP2) (Aeropyrum pernix). Description: crystal structure.
Data set [2] shares this target. Description: crystal structure. This is another data set of the same source.
For data set [3] the target is unchanged. The experiment in a line: SEC.
In data set [4] the target is Pyrococcus furiosus ThermoDBP-related protein 1 (pfuThermoDBP-RP1) (Pyrococcus furiosus). Description: crystal structure.
For data set [5] the target is unchanged. The experiment in a line: SEC. (In general: SEC sorts molecules by how far they enter the pores of the column.)
For data set [6], the target named is T1, apeThermoDBP-RP2 (Aeropyrum pernix, UniProt Q9YAS7 1-234).
T1 sequence: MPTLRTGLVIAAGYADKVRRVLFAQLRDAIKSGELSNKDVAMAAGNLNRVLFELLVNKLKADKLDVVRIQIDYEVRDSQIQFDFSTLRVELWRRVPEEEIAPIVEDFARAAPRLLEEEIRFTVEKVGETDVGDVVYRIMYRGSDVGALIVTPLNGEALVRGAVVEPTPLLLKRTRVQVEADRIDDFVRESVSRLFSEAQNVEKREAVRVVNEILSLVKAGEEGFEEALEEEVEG
The experiment in a line: EMSA. Background: A gel shift assay detects complexes by their altered migration in electrophoresis.

Data set [7] has as its target T1, apeThermoDBP-RP2. Description: EMSA. The source holds these as a separate data set.
Data set [8] addresses T1, apeThermoDBP-RP2. The experiment in a line: EMSA. The source holds these as a separate data set.
Data set [9] has as its target T1, apeThermoDBP-RP2. The experiment in a line: EMSA. This is another data set of the same source.

Like-named read-outs stand apart in the source and are kept apart here.

For “Aeropyrum pernix ThermoDBP-related protein 2 (apeThermoDBP-RP2) (natural protein)”, the stoichiometry N in [1], in data set [2] and in data set [3] was 4 each time.

For “Pyrococcus furiosus ThermoDBP-related protein 1 (pfuThermoDBP-RP1) (natural protein)”, the stoichiometry N in data set [4] and in [5] was 4 each time.

Take TTTTTTTTTTTTTTTTTTTTTTTTT (ssDNA) [dT25]: the binding result in [6] is reported as “binds”.

Consider TTTTTTTTTTTTTTT (ssDNA) [dT15], for which, in data set [6], the binding result was “binds”.

In the case of TTTTTTTTTTTTTTTTTTTTTTTTTTTTTT (ssDNA) [dT30], the binding result in [7] was “binds”.

With CTTGCTAGGACGGATCCCTCGAGGTTTTTTTTTTTTTTTTTTTT (ssDNA) [45-mer ssDNA], the binding result in [8] is reported as “binds”.

Consider TTTTTTTTTTTTTTTTTTTT (ssDNA) [dT20], for which the binding result in [6] is “binds”.

As for TTTTTTTTTTTTTTTTTTTTTTTTTTTTTTTTTTT (ssDNA) [dT35], the binding result in [9] is “binds”.

The term stoichiometry N denotes the number of molecules, sites or subunits per partner or assembly.

Source of the values: paper PMC4041433.
